Measurements as given in the Immune Epitope Database (IEDB).

Assays:
Assay in all cases: IEDB peptide-MHC binding, purified MHC/competitive/radioactivity; ≥ and ≤ were set here for values at or beyond the usual limits of such assays
Details in all cases: source organism: Bordetella pertussis
HLA-A*02:01 = molecular target: HLA-A*02:01
HLA-B*53:01 = molecular target: HLA-B*53:01
HLA-B*44:03 = molecular target: HLA-B*44:03
HLA-B*57:01 = molecular target: HLA-B*57:01
HLA-B*07:02 = molecular target: HLA-B*07:02
HLA-B*35:01 = molecular target: HLA-B*35:01

Q: Which IC50 (HLA-A*02:01) does the source give for VLVKTNMVV here?
A: 11.4 µM

Q: How did the IC50 (HLA-B*53:01) turn out when MAAESTFES was run?
A: 24.1 µM

Q: Which IC50 (HLA-B*44:03) does the source give for AQITSYVGF here?
A: 2.12 µM

Q: AVLVNPHIF was tested. Which IC50 (HLA-B*57:01) did it give?
A: 33.3 µM

Q: Which IC50 (HLA-B*07:02) does the source give for PPKPAPVAK here?
A: ≥ 77.5 µM

Q: Which IC50 (HLA-B*57:01) does the source give for TTLGLEQTF here?
A: 4.77 µM

Q: With MATKGEMQI as the sequence, how does the IC50 (HLA-B*53:01) read?
A: 58 µM

Q: How did the IC50 (HLA-B*35:01) turn out when VHVSKEEQY was run?
A: 69.9 µM

Q: Which IC50 (HLA-B*07:02) does the source give for GPPSRPTTP here?
A: 69.6 µM

Q: With GVAPTAQQL as the sequence, how does the IC50 (HLA-A*02:01) read?
A: 69.4 µM

Q: How did the IC50 (HLA-B*44:03) turn out when AAVALLNKL was run?
A: 0.672 µM

Q: FVRSGQPVI was tested. Which IC50 (HLA-B*07:02) did it give?
A: 17.6 µM

Q: Which IC50 (HLA-A*02:01) does the source give for YMIYMSGLA here?
A: 0.407 µM

Q: DDEVDVSGR was tested. Which IC50 (HLA-B*57:01) did it give?
A: ≥ 70.4 µM

Q: How did the IC50 (HLA-B*57:01) turn out when ITVTSRGGF was run?
A: 0.773 µM

Q: GPSAVAAPA was tested. Which IC50 (HLA-B*07:02) did it give?
A: 0.624 µM

Q: Which results are given for ETFCITTIY?
A: IC50 (HLA-B*35:01): 15.8 µM; IC50 (HLA-B*53:01): 31.1 µM

Q: How did the IC50 (HLA-B*35:01) turn out when QVGSSNSAF was run?
A: 69.9 µM

Q: How did the IC50 (HLA-B*35:01) turn out when GKDLKRPGS was run?
A: 69.9 µM
